B1: ZNF8 (parent)
chain: RIHTGERPYMCKECGKAFSQNSSL
B2: CLCN6 (parent)
chain: TGLVGLFVDFFVRLFTQLKFGVVQ

Variants of: B1
Experiment: protein stability index of a GFP-peptide fusion (GPS, HEK-293T) (PSI 1-6); higher = more stable
Conditions: c terminus: a fixed tail appended
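Note: lentivirally expressed fusions sorted by FACS into six bins by GFP to DsRed ratio, PSI derived from sequencing read proportions per bin multiplied by bin number.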

Protein stability index of substitutions, site by site:
S19: N 2.31 | A 2.66 | C 3.28
N21: Q 2.48 | V 1.4 | D 3.08 | L 1.86 | E 2.65
Q20: L 2.1 | D 2.37
A17: S 2.94 | L 2.47 | P 2.09 | R 3.04
E13: A 2.08 | H 2.14 | T 1.96 | G 1.94 | M 2.05 | C 1.85
S22: G 2.68 | R 2.19 | H 2 | K 2.4 | P 2.6 | M 2.22 | C 3.07 | Y 1.8
C11: R 2.67 | T 2.48 | H 2.75 | A 2.73 | I 2.19
R1: G 3.34 | H 3.56 | W 2.27 | T 3.22 | Y 2.2 | L 2.63 | F 1.97
I2: T 1.74 | L 2.35 | V 2.29 | Y 2.73 | R 2.94 | A 2.41 | E 2.87 | F 2.5
T4: L 2.16 | A 2.21 | R 2.04 | P 3.3 | S 2.81 | N 2.91 | E 3.16 | M 1.88 | V 2.59
Y9: S 2.2 | N 2.7
L24: Q 3.21 | T 3.43 | F 2.48 | N 3.37 | S 3.55 | H 3.02 | R 2.55
R7: Y 2.39 | E 3.85 | A 2.6 | H 3.36 | W 2.9 | N 3.38 | T 4
H3: P 2.38 | I 2.74 | Y 2.33 | G 3.12
P8: F 2.28 | I 2.43 | Y 2.62 | C 2.31 | V 2.67 | E 3.22 | G 2.53 | N 2.04 | T 2.96 | Q 2.99
K16: P 2.06 | E 2.97 | R 2.3 | A 2.24 | Y 1.61
F18: N 3.83 | A 2.93 | T 2.85 | K 3.29 | I 2.53 | M 2.76
C14: F 2.65 | A 3.1 | G 3.18 | S 2.74 | D 3.48
K12: A 3.12 | M 2.52 | F 1.8 | W 1.51
G5: F 2.09 | Y 2.73 | M 2.62 | H 2.63 | T 2.31 | L 2.01
S23: M 1.98 | Q 2.58 | G 2.3 | R 1.66 | F 1.77 | D 2.8 | I 2.02
E6: Y 1.88 | S 1.33 | Q 2.2 | L 2 | V 1.98
M10: N 2.12 | T 3.03 | L 2.74 | G 2.7 | R 1.95 | F 2.31 | K 1.75
G15: M 2.67 | Y 1.62 | H 2.32 | R 2.76 | N 2.33 | I 1.98 | D 3.25 | S 3.2 | K 2.99

Variants of: B2
Experiment: as above
Conditions: c terminus: a fixed tail appended

Protein stability index of substitutions, site by site:
L6: C 2.69 | Y 3.19 | A 2.77 | I 2.83 | K 2.44 | D 2.33 | F 2.4 | M 2.93 | E 2.25 | Q 3.53 | V 2.15 | H 3.06 | W 3.31 | S 2.99 | T 2.71 | R 3.73 | P 2.65 | G 3.36 | N 2.76
V8: T 1.9 | S 1.76 | M 2.08 | K 2.04 | R 2.25 | D 2.45 | P 1.7 | N 2.27 | W 3.01 | L 3.04 | C 2.25 | Y 2.79 | F 2.04 | A 1.6 | E 1.38 | I 1.74 | Q 2.05 | H 2.77 | G 2.9
G2: K 2.53 | F 3.79 | Q 1.73 | N 1.84 | Y 2.9 | C 2.77 | I 2.36 | S 1.96 | M 2.66 | D 1.64 | E 1.67 | R 2.78 | L 3.27 | W 2.22 | T 1.81 | P 1.67 | H 2.34
T1: E 1.92 | S 2.6 | M 1.99 | V 1.7 | P 2.59 | Q 2.17 | R 3.29 | D 2.39 | F 2.1 | W 1.73 | A 1.84 | I 1.56 | H 2.01 | L 1.68 | K 2.83 | Y 2.82 | N 1.8 | G 2.12 | C 2.14
D9: S 2.15 | I 2.68 | W 1.51 | G 2.47 | M 1.89 | Q 2.24 | P 1.92 | Y 1.89 | L 1.86 | H 2.61 | F 2.17 | C 1.25 | A 1.59 | R 3.51 | N 2.87 | T 1.97 | K 3.08 | E 2.12
F7: S 1.82 | R 1.69 | D 3.18 | Y 2.54 | I 2.57 | P 2.28 | N 1.84 | L 2.77 | M 2.56 | T 2.35 | H 2.44 | G 1.73 | V 3.05 | A 2.38 | E 4.32 | W 2.28 | Q 2.03 | K 1.78 | C 2.89
L3: V 2.42 | S 2.05 | R 2.52 | A 2.15 | G 1.4 | K 3.14 | Q 1.49 | N 2.11 | I 2.36 | D 2.07 | F 2.71 | H 2.25 | P 2.45 | W 3.37 | Y 2.63 | C 2.42 | T 1.65 | E 3.71 | M 2.73
V4: C 2.36 | K 2.16 | P 2.05 | N 2.39 | D 4.33 | Q 2.79 | F 2.93 | I 2.56 | H 2.28 | L 2.33 | Y 2.07 | A 1.97 | W 3.63 | R 2.19 | S 2.63 | G 1.66 | T 2.38 | M 2.49
F11: M 2.16 | K 3.06 | E 2.4 | D 4.03 | C 2.93 | G 1.76 | H 2.21 | L 2.32 | I 2.29 | A 2.84
G5: Q 2.21 | H 2.16 | K 3.25 | D 2.47 | Y 2.08 | T 1.34 | P 2.71 | E 1.78 | C 2.42 | A 2.19 | F 1.72 | R 2.69 | M 2.48 | W 1.86 | S 2.21 | N 2
F10: K 1.98 | V 2.42 | C 1.42 | S 1.8 | E 2.19 | I 2.21 | T 2 | M 1.81 | G 1.29 | L 1.77 | A 2.34 | N 2.32 | P 2.17 | D 2.75 | H 1.61 | W 2.7 | Q 1.85 | Y 2.27 | R 2.82

Source: the supplement of paper PMC10567573
